This test has as its target T1, His-tagged full-length ATF4 (mouse, UniProt Q06507 1-349).
T1 sequence (looked up): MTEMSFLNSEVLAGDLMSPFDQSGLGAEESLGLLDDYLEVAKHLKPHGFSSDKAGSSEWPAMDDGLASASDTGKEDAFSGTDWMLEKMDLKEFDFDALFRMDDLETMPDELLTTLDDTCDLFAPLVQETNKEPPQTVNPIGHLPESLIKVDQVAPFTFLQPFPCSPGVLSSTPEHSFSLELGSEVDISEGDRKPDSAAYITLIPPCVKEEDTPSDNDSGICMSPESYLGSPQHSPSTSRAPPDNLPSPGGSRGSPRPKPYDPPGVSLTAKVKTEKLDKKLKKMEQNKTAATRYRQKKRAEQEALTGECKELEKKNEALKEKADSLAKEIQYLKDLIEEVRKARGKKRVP
The test can be described thus: pull-down.

Experimental findings from paper PMC7422940 (Journal of bone and mineral research : the official journal …, 2019) are described below.

B1: GST-Hop2^81−147 (domain or fragment, mouse, UniProt O35047 81-147, looked up)
chain: VSDADLHGLDASIVALTAKVQSLQQSCRHMEAELKELTSALTTPEMQKEIQELKKECAQYTERLKNI
For B1, the binding result is reported as “binds”.
